{
  "source": "patent US20110239319",
  "about": "“Use of Endonucleases for Inserting Transgenes Into Safe Harbor Loci” (published 2011)",
  "binders": {"B1": {"name": "SH3 target (dsDNA)", "DNA 1": "CCAATACAAGGTACAAAGTCCTGA", "DNA 2": "TCAGGACTTTGTACCTTGTATTGG"}, "B2": {"name": "SH41 target (dsDNA)", "DNA 1": "CCTCTCTTAGGTGAGACGGTACAT", "DNA 2": "ATGTACCGTCTCACCTAAGAGAGG"}, "B3": {"name": "SH42 target (dsDNA)", "DNA 1": "TATATCCCATGTGAGACATGCAGT", "DNA 2": "ACTGCATGTCTCACATGGGATATA"}, "B4": {"name": "SH43 target (dsDNA)", "DNA 1": "TAAATACGTCTTACATTATTTTGC", "DNA 2": "GCAAAATAATGTAAGACGTATTTA"}, "B5": {"name": "SH19 target (dsDNA)", "DNA 1": "GCAAAACATTGTAAGACATGCCAA", "DNA 2": "TTGGCATGTCTTACAATGTTTTGC"}, "B6": {"name": "SH4 target (dsDNA)", "DNA 1": "TTAAAACACTGTACACCATTTTGA", "DNA 2": "TCAAAATGGTGTACAGTGTTTTAA"}, "B7": {"name": "SH44 target (dsDNA)", "DNA 1": "AAGAAATGTCTCACAGAATTTTAC", "DNA 2": "GTAAAATTCTGTGAGACATTTCTT"}, "B8": {"name": "SH31 target (dsDNA)", "DNA 1": "TTGTAATGTCTTACAAGGTTTTAA", "DNA 2": "TTAAAACCTTGTAAGACATTACAA"}, "B9": {"name": "SH52 target (dsDNA)", "DNA 1": "CTCCACTGTCTTACCTAATCCAGC", "DNA 2": "GCTGGATTAGGTAAGACAGTGGAG"}, "B10": {"name": "SH39 target (dsDNA)", "DNA 1": "TCCTTCTGTCTTAAGAGATTTATC", "DNA 2": "GATAAATCTCTTAAGACAGAAGGA"}},
  "test_in_all_cases": "cell_activity; endogenous locus, 293H",
  "key": {"SCOH-SH3-b1-C": {"target": "T1, SCOH-SH3-b1-C (artificial)", "T1 chain": "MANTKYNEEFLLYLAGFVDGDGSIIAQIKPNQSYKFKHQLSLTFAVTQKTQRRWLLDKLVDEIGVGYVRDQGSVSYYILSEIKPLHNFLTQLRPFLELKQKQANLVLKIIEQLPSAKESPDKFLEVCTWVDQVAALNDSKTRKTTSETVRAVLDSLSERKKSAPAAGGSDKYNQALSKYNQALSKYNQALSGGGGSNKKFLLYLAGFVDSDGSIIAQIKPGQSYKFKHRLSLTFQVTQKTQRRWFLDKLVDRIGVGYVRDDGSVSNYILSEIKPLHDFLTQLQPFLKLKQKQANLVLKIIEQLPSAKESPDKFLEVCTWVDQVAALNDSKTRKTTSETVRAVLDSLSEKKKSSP", "procedure": "(§1) Human embryonic kidney 293H cells (Invitrogen) were plated at a density of 1×10⁶ cells per 10 cm dish in complete medium (DMEM supplemented with 2 mM L-glutamine, penicillin (100 UI/ml), streptomycin (100 μg/ml), amphotericin B (Fongizone) (0.25 μg/ml) (Invitrogen-Life Science) and 10% FBS). The next day, cells were transfected with 3 μg of single-chain meganuclease expression vector using Lipofectamine 2000 transfection reagent (Invitrogen) according to the supplier's protocol. After 2 to 6 days of incubation at 37° C., cells were trypsinized and genomic DNA extraction was performed with the DNeasy blood and tissue kit (Qiagen) according to the supplier's protocol.\n(§2) Human embryonic kidney 293H cells were transfected with a plasmid expressing a single-chain safe harbor meganuclease. After 2 to 6 days of incubation at 37° C., genomic DNA was isolated and PCR was used to amplify the genomic sequence surrounding the meganuclease target site. Sequences were then analyzed for the presence of insertions or deletions events (InDel) in the cleavage site of each safe harbor target."}, "SCOH-SH41-b11-C": {"target": "T2, SCOH-SH41-b11-C (artificial)", "T2 chain": "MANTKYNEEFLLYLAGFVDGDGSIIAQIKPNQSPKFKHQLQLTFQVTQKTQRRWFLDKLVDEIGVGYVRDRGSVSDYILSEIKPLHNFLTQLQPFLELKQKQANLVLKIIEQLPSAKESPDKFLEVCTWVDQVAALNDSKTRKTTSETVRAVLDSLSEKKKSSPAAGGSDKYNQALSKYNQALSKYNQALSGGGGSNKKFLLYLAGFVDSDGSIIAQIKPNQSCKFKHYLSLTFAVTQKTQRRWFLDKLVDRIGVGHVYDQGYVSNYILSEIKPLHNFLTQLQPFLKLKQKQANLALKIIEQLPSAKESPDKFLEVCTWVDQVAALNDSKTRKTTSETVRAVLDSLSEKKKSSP", "procedure": "as §1, §2"}, "SCOH-SH42-b11-C": {"target": "T3, SCOH-SH42-b11-C (artificial)", "T3 chain": "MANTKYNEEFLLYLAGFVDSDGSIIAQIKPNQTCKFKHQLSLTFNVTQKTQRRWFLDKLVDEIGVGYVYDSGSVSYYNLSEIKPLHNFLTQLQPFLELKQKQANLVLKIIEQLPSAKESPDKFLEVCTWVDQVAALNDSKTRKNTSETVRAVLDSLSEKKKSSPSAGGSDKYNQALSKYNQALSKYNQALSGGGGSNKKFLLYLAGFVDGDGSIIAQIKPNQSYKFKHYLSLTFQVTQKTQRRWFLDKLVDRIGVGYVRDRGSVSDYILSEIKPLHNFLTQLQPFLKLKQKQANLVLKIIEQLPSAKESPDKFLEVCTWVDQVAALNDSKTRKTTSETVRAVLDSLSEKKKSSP", "procedure": "as §1, §2"}, "SCOH-SH43-b12-C": {"target": "T4, SCOH-SH43-b12-C (artificial)", "T4 chain": "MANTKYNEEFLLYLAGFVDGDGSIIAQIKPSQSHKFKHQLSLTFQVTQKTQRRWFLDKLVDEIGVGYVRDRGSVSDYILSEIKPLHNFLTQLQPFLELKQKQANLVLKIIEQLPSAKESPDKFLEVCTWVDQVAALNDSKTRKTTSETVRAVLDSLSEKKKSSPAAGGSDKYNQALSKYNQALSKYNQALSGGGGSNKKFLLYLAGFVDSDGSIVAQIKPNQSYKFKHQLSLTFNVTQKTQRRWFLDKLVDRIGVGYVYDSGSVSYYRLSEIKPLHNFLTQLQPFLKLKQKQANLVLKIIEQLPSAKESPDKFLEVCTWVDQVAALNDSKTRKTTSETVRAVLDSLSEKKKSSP", "procedure": "as §1, §2"}, "SCOH-SH19": {"target": "T5, SCOH-SH19 (artificial)", "T5 chain": "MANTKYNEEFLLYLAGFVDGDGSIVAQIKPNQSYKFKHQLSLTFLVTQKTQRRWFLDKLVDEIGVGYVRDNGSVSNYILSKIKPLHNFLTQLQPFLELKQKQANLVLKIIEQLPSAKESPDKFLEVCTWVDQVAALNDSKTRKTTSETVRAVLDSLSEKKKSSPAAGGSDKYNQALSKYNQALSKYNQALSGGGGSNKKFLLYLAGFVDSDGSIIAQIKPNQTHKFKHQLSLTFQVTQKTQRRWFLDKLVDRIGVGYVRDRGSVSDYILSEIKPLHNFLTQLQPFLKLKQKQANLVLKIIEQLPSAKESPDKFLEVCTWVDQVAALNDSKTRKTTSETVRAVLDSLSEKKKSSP", "procedure": "as §1, §2"}, "SCOH-SH4-b1-C": {"target": "T6, SCOH-SH4-b1-C (artificial)", "T6 chain": "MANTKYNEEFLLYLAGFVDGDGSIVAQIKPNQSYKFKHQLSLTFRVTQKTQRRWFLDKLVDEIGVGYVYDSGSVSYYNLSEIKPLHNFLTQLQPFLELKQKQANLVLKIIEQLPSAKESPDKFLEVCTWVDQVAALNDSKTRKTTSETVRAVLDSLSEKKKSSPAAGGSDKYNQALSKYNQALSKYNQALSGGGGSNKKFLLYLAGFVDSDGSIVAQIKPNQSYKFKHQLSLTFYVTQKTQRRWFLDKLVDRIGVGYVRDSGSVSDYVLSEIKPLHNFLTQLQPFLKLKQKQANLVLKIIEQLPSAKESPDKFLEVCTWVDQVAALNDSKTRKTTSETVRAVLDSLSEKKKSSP", "procedure": "as §1, §2"}, "SCOH-SH44-b11-C": {"target": "T7, SCOH-SH44-b11-C (artificial)", "T7 chain": "T4 chain with S31R, V215I, N235K, Y266N, R268I, E271K", "procedure": "as §1, §2"}, "SCOH-SH31.2": {"target": "T8, SCOH-SH31.2 (artificial)", "T8 chain": "T4 chain with S31N, H34R, Q39A, S41Q, V215I, N235K, Y259R, S261N, Y266D, R268I", "procedure": "as §1, §2"}, "SCOH-SH52-b12-C": {"target": "T9, SCOH-SH52-b12-C (artificial)", "T9 chain": "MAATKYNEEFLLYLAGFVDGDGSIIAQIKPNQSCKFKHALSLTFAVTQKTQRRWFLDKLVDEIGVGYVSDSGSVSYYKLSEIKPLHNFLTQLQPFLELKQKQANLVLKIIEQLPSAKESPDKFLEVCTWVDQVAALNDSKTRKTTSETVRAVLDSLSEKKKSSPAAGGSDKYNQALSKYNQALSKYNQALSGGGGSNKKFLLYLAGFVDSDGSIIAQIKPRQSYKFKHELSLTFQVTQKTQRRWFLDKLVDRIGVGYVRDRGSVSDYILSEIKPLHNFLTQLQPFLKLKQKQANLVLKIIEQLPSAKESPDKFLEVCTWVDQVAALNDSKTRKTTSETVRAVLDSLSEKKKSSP", "procedure": "as §1, §2"}, "SCOH-SH39-b11-C": {"target": "T10, SCOH-SH39-b11-C (artificial)", "T10 chain": "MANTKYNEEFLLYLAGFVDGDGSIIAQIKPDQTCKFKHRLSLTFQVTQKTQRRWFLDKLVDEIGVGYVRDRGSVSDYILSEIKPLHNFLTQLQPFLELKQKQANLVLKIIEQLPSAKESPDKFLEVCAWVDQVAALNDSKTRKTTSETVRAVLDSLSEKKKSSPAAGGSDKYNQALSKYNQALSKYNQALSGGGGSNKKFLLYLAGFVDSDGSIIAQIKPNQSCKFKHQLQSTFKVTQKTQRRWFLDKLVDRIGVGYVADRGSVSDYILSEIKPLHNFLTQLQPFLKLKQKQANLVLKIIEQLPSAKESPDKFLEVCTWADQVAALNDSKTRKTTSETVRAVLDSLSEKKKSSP", "procedure": "as §1, §2"}},
  "note": "Substitutions are numbered along the chain they refer to.",
  "data": [
    {"binder": "B1", "values": [
      {"measurement": "activity", "setting": "SCOH-SH3-b1-C", "value": 0.8, "unit": "% InDels"}
    ]},
    {"binder": "B2", "values": [
      {"measurement": "activity", "setting": "SCOH-SH41-b11-C", "value": 0.4, "unit": "% InDels"}
    ]},
    {"binder": "B3", "values": [
      {"measurement": "activity", "setting": "SCOH-SH42-b11-C", "value": 0.7, "unit": "% InDels"}
    ]},
    {"binder": "B4", "values": [
      {"measurement": "activity", "setting": "SCOH-SH43-b12-C", "value": 0.4, "unit": "% InDels"}
    ]},
    {"binder": "B5", "values": [
      {"measurement": "activity", "setting": "SCOH-SH19", "value": 0.9, "unit": "% InDels"}
    ]},
    {"binder": "B6", "values": [
      {"measurement": "activity", "setting": "SCOH-SH4-b1-C", "value": 0.2, "unit": "% InDels"}
    ]},
    {"binder": "B7", "values": [
      {"measurement": "activity", "setting": "SCOH-SH44-b11-C", "value": 3.6, "unit": "% InDels"}
    ]},
    {"binder": "B8", "values": [
      {"measurement": "activity", "setting": "SCOH-SH31.2", "value": 5, "unit": "% InDels"}
    ]},
    {"binder": "B9", "values": [
      {"measurement": "activity", "setting": "SCOH-SH52-b12-C", "value": 3.2, "unit": "% InDels"}
    ]},
    {"binder": "B10", "values": [
      {"measurement": "activity", "setting": "SCOH-SH39-b11-C", "value": 1.5, "unit": "% InDels"}
    ]}
  ]
}
